Data reported in PMC5159498, “IQGAP1 Interaction with RHO Family Proteins Revisited” (The Journal of Biological Chemistry, 2016).

Experiments:
Conditions in all cases: both partners purified
[1] = target: T1, IQGAP1 GRD1-CT (aa 863-1657) (human, UniProt P46940 863-1657); experiment: fluorescence polarisation; IQGAP1 variant titrated to mGppNHp-bound RHO protein (1 μM); equilibrium Kd (eKd), quadratic fit; 30 mM Tris/HCl pH 7.5, 150 mM NaCl, 5 mM MgCl2, 3 mM DTT, 25 °C
T1 construct: human IQGAP1, GRD, RGCT and CT domains, aa 863-1657; The GST tag was cleaved 'if needed'; also called C-terminal half of IQGAP1; C-terminal 795 amino acids of IQGAP1
T1 sequence (looked up): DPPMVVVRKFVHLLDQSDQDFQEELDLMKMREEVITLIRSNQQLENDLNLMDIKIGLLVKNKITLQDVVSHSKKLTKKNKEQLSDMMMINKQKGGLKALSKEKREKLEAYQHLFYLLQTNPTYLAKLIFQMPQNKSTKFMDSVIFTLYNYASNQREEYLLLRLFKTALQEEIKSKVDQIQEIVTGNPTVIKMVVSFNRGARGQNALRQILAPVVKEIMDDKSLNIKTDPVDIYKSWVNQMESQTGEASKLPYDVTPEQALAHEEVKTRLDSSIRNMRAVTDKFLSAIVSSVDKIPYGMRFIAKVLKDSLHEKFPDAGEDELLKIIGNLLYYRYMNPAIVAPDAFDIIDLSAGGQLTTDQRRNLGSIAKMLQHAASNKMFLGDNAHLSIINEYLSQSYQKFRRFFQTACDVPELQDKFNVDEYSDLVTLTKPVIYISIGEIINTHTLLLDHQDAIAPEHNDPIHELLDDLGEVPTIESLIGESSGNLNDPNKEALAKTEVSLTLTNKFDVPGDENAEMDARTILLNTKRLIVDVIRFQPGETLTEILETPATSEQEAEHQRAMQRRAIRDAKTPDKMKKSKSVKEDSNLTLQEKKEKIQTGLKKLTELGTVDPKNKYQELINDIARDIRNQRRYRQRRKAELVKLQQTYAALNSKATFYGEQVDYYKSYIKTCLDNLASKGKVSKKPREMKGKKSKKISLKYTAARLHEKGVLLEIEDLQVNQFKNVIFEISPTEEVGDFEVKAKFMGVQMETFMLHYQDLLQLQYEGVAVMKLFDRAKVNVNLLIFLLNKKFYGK

[2] = target: T2, IQGAP1 GRD1-RGCT S1441E (aa 877-1558) (human, UniProt P46940 877-1558, S1441E); experiment: as above
T2 construct: human IQGAP1 aa 877-1558 with the phosphomimetic mutation S1441E, from the vector pET46 EkLIC; source: E. coli (pLysS BL21(DE3), CodonPlusRIL or BL21(Rosetta)), purified (Ni-NTA, gel filtration)
T2 sequence (looked up): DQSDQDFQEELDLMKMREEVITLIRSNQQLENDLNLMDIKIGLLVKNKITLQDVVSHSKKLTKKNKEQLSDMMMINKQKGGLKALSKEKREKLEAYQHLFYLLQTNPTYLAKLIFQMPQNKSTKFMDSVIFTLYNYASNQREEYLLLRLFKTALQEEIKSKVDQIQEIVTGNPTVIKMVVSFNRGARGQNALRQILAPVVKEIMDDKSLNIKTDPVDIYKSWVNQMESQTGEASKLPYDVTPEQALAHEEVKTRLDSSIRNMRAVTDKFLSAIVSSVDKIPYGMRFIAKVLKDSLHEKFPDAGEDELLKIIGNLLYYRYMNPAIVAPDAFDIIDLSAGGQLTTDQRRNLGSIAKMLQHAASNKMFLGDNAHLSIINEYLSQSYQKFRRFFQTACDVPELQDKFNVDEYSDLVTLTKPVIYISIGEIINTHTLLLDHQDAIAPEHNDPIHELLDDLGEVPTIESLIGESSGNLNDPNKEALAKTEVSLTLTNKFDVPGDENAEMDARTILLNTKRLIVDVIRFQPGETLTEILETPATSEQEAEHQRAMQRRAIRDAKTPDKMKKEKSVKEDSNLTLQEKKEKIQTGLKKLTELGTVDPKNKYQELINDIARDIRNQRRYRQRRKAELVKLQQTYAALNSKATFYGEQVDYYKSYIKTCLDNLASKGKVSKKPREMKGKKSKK

[3] = target: T1, IQGAP1 GRD1-CT (aa 863-1657); experiment: fluorescence polarisation; IQGAP1 variant titrated to mGDP-bound (inactive) RHO protein (1 μM), same conditions as with mGppNHp; 30 mM Tris/HCl pH 7.5, 150 mM NaCl, 5 mM MgCl2, 3 mM DTT, 25 °C

Kd [1]: 3.4 µM | Kd [2]: 3.6 µM | Kd [3]: 95.1 µM
B1: CDC42 (aa 1-178) (domain or fragment)
chain: not shown
notes: human CDC42, C-terminally truncated, aa 1-178; Loaded non-covalently with mGppNHp, tGppNHp, mGDP or non-fluorescent GppNHp; the nucleotide is named in the format of each assay; also called CDC42^WT; CDC42-mGppNHp
